Target: C-terminal, Twin-Strep-HA-tagged AVRA13-1 (Blumeria hordei)
Assay: SEC + other: negative-stain TEM

## N-terminal, GST-tagged MLA13^K98E/K100E (receptor)
  stoichiometry N: 1
